Data published in patent US12281340B2, “Method of producing N-acyl-amino group-containing compound” (AJINOMOTO CO., INC., priority 2018, dated 2025).

Legend:
Format in all cases: biochemical
Parameters in all cases: key: +: Detected; −: Not detected
[1] = Synthesis of N-caprinoylamino acid using purified acylamino acid synthetase, UPLC-MS detection; conditions: +ATP
Experimental: 2.0 mL of a reaction solution containing 50 mM Tris-HCl, 5 mM amino acid, 5 mM sodium caprate, 10 mM ATP, 10 mM MgCl2, 1 mM DTT, 50 μg of the purified enzyme, pH 8.0 was incubated at 25° C. for 24 hours. After completion of the reaction, 0.8 mL of a reaction stop solution (1% (v/v) phosphoric acid, 75% (v/v) methanol) was added, and the mixture was filtrated through a filter followed by being subjected to the UPLC-MS analysis to detect a signal of a molecular weight corresponding to an N-caprinoyl amino acid.
A UPLC-MS analysis condition is as follows.
(§1) Apparatus: ACQUITY UPLC (Waters)
• Column: ACQUITY UPLC BEH C18 1.7 2.1×100 mm Column (Waters) • Mobile phase A: 0.1% formic acid • Mobile phase B: acetonitrile Gradient
• Flow rate: 0.6 mL/min • Injection amount: 2 μL • Column temperature: 40° C. • Ionization method: ESI-negative
As a result of the UPLC-MS analysis, the signal of the molecular weight corresponding to the N-caprinoyl amino acid was confirmed in the reaction solution combining the enzyme and the amino acid shown in Table 3 below.

[2] = Synthesis of N-caprinoyl-amino acid derivative, N-caprinoyl-D-amino acid and N-caprinoyl-peptide using purified acylamino acid synthetase, UPLC-MS detection; conditions: +ATP
Experimental: 0.2 mL of a reaction solution containing 50 mM Tris-HCl, 5 mM amino acid derivative or D-amino acid or peptide, 5 mM sodium caprate, 10 mM ATP, 10 mM MgCl2, 1 mM DTT, 50 μg/mL of the purified enzyme, pH 8.0 was incubated at 25° C. for 24 hours. After completion of the reaction, 0.8 mL of the reaction stop solution (1% (v/v) phosphoric acid, 75% (v/v) methanol) was added, and the mixture was filtrated through the filter followed by being subjected to the UPLC-MS analysis to detect a signal of a molecular weight corresponding to an N-caprinoyl-amino acid derivative, an N-caprinoyl-amino acid or an N-caprinoyl-peptide. A condition for the UPLC-MS analysis is as described in Example 2.
As a result of the UPLC-MS analysis, the signal of the molecular weight corresponding to the N-caprinoyl-amino acid derivative, or N-caprinoyl-amino acid, or N-caprinoyl-peptide was confirmed in the reaction solution containing the enzyme in combination with the amino acid derivative or the D-amino acid or the peptide shown in Table 4 below.

[3] = Synthesis of N-acylamino acids from various fatty acids using purified acylamino acid synthetase, UPLC-MS detection
Experimental: 0.1 mL of a reaction solution containing 50 mM Tris-HCl, 5 mM amino acid, 5 mM sodium fatty acid (3 mM of sodium palmitate or sodium stearate), 10 mM ATP, 10 mM MgCl2, 1 mM DTT, 200 μg/mL of the purified enzyme, pH 8.0 was shaken at 25° C. for 24 hours. When sodium palmitate or sodium stearate was used, methanol at a final concentration of 10% (v/v) was contained in the reaction solution. As the amino acid, L-Asp was used in AtGH3-6, OsGH3-8, AtGH3-5, AtGH3-12, L-Ile was used in AtJAR1, L-Ala was used in AtGH3-10, SsGH3, L-Glu was used in AtGH3-17, Gly was used in CfHP, L-Lys was used in PsIAAL, and L-Cys was used in PaHP. After completion of the reaction, 0.4 mL of the reaction stop solution (1% (v/v) phosphoric acid, 75% (v/v) methanol) was added, and the mixture was filtrated through the filter followed by being subjected to the UPLC-MS analysis to detect a signal of a molecular weight corresponding to the N-acylamino acid.
The condition for the UPLC-MS analysis is as follows.
as §1
Column: ACQUITY UPLC BEH C18 1.7 μm 2.1×100 mm Column (Waters), mobile phase A: 0.1% formic acid; mobile phase B: acetonitrile
• Flow rate: 0.6 mL/minute • Injection amount: 2 μL • Column temperature: 40° C. • Ionization method: ESI-negative
As a result of the UPLC-MS analysis, the signal of the molecular weight corresponding to the appropriate N-acylamino acid was confirmed in the reaction solution containing the enzyme in combination with sodium fatty acid shown in Table 7 below.

B1: AtGH3-10: GH3-10 from Arabidopsis thaliana, His-tagged (protein, listed as Arabidopsis thaliana)
chain: METVEAGHDDVIGWFEHVSENACKVQSETLRRILELNSGVEYLRKWLGTVDVEKMDDYTLETLFTSLVPIVSHADLDPYIQRIADGETSPLLTQEPITVLSLSSGTTEGRQKYVPFTRHSAQTTLQIFRLSAAYRSRFYPIREGGRILEFIYAGKEFKTLGGLTVGTATTHYYASEEFKTKQETTKSFTCSPQEVISGGDFGQCTYCHLLLGLHYSSQVEFVASAFSYTIVQAFSFFEEIWREICADIKEGNLSSRITLPKMRKAVLALIRPNPSLASHIEEICLELETNLGWFGLISKLWPNAKFISSIMTGSMLPYLNKLRHYAGGLPLVSADYGSTESWIGVNVDPHLPPEDVSFAVIPTFSYFEFIPLYRRQNQSDICIDGDFVEDKPVPLSQVKLGQEYELVLTTFTGLYRYRLGDVVEVTSFHKGTPKLSFIYRRKLILTINIDKNTEKDLQRVVDKASQLLSRSTRAEVVDFTSHADVIARPGHYVIYWEIRGEADDKALEECCREMDTAFVDYGYVVSRRMNSIGPLELRVVERGTFGKVAERCVGKCGGLNQFKTPRCTTNSVMLDILNDSTIKRFRSSAYD
modifications: His-tag
notes: GH3-10 from Arabidopsis thaliana, His-tagged
With B1 as the molecule, how does the “signal of molecular weight corresponding to N-caprinoyl amino acid” value (shortened to “signal … to N-caprinoyl amino acid”) ([1]; substrates GABA and sodium caprate) read?
Its value is “+”.

And the “signal … to N-caprinoyl amino acid” value ([1]; substrates Gly and sodium caprate)?
The value was “+”.

And the “signal … to N-caprinoyl amino acid” value ([1]; substrates L-Ala and sodium caprate)?
Its value is “+”.

What about the “signal … to N-caprinoyl amino acid” value ([1]; substrates L-Arg and sodium caprate) of the same molecule?
Its value is “+”.

What about the “signal … to N-caprinoyl amino acid” value ([1]; substrates L-Asn and sodium caprate) of the same molecule?
The value was “+”.

What about the “signal … to N-caprinoyl amino acid” value ([1]; substrates L-Asp and sodium caprate) of the same molecule?
The value was “+”.

What about the “signal … to N-caprinoyl amino acid” value ([1]; substrates L-Cys and sodium caprate) of the same molecule?
The value was “−”.

What about the “signal … to N-caprinoyl amino acid” value ([1]; substrates L-Gln and sodium caprate) of the same molecule?
Its value is “+”.

And the “signal … to N-caprinoyl amino acid” value ([1]; substrates L-Glu and sodium caprate)?
Its value is “−”.

What about the “signal … to N-caprinoyl amino acid” value ([1]; substrates L-His and sodium caprate) of the same molecule?
Its value is “+”.

And the “signal … to N-caprinoyl amino acid” value ([1]; substrates L-Ile and sodium caprate)?
Its value is “+”.

What about the “signal … to N-caprinoyl amino acid” value ([1]; substrates L-Leu and sodium caprate) of the same molecule?
The value was “+”.

And the “signal … to N-caprinoyl amino acid” value ([1]; substrates L-Lys and sodium caprate)?
Its value is “+”.

What about the “signal … to N-caprinoyl amino acid” value ([1]; substrates L-Met and sodium caprate) of the same molecule?
Its value is “+”.

What about the “signal … to N-caprinoyl amino acid” value ([1]; substrates L-Phe and sodium caprate) of the same molecule?
The value was “+”.

And the “signal … to N-caprinoyl amino acid” value ([1]; substrates L-Pro and sodium caprate)?
The value was “+”.

What about the “signal … to N-caprinoyl amino acid” value ([1]; substrates L-Ser and sodium caprate) of the same molecule?
Its value is “+”.

What about the “signal … to N-caprinoyl amino acid” value ([1]; substrates L-Thr and sodium caprate) of the same molecule?
The value was “+”.

What about the “signal … to N-caprinoyl amino acid” value ([1]; substrates L-Trp and sodium caprate) of the same molecule?
The value was “+”.

And the “signal … to N-caprinoyl amino acid” value ([1]; substrates L-Tyr and sodium caprate)?
Its value is “+”.

And the “signal … to N-caprinoyl amino acid” value ([1]; substrates L-Val and sodium caprate)?
Its value is “+”.

What about the “signal … to N-caprinoyl amino acid” value ([1]; substrates β-Ala and sodium caprate) of the same molecule?
The value was “+”.

What about the “signal of molecular weight corresponding to N-caprinoyl compound” value (“signal … to N-caprinoyl compound” for short) ([2]; substrates Carnosine and sodium caprate) of the same molecule?
Its value is “−”.

And the “signal … to N-caprinoyl compound” value ([2]; substrates D-Ala and sodium caprate)?
The value was “+”.

What about the “signal … to N-caprinoyl compound” value ([2]; substrates D-Asp and sodium caprate) of the same molecule?
Its value is “+”.

What about the “signal … to N-caprinoyl compound” value ([2]; substrates D-Cys and sodium caprate) of the same molecule?
Its value is “+”.

And the “signal … to N-caprinoyl compound” value ([2]; substrates D-Glu and sodium caprate)?
The value was “+”.

And the “signal … to N-caprinoyl compound” value ([2]; substrates D-Ile and sodium caprate)?
The value was “−”.

What about the “signal … to N-caprinoyl compound” value ([2]; substrates D-Lys and sodium caprate) of the same molecule?
Its value is “−”.

And the “signal … to N-caprinoyl compound” value ([2]; substrates L-Asp-L-Phe and sodium caprate)?
The value was “−”.

And the “signal … to N-caprinoyl compound” value ([2]; substrates L-Gly-L-Gly and sodium caprate)?
The value was “+”.

And the “signal … to N-caprinoyl compound” value ([2]; substrates Sarcosine and sodium caprate)?
The value was “−”.

What about the “signal … to N-caprinoyl compound” value ([2]; substrates Taurine and sodium caprate) of the same molecule?
Its value is “+”.

And the “signal of molecular weight corresponding to N-acylamino acid” value (“signal … to N-acylamino acid” for short) ([3]; substrates L-Ala and Capric acid)?
Its value is “+”.

And the “signal … to N-acylamino acid” value ([3]; substrates L-Ala and Caproic acid)?
The value was “+”.

And the “signal … to N-acylamino acid” value ([3]; substrates L-Ala and Caprylic acid)?
The value was “+”.

What about the “signal … to N-acylamino acid” value ([3]; substrates L-Ala and Lauric acid) of the same molecule?
The value was “+”.

And the “signal … to N-acylamino acid” value ([3]; substrates L-Ala and Linoleic acid)?
The value was “−”.

What about the “signal … to N-acylamino acid” value ([3]; substrates L-Ala and Palmitic acid) of the same molecule?
The value was “−”.

What about the “signal … to N-acylamino acid” value ([3]; substrates L-Ala and myristic acid) of the same molecule?
Its value is “+”.

What about the “signal … to N-acylamino acid” value ([3]; substrates L-Lys and Capric acid) of the same molecule?
The value was “+”.

What about the “signal … to N-acylamino acid” value ([3]; substrates L-Lys and Caproic acid) of the same molecule?
Its value is “+”.

And the “signal … to N-acylamino acid” value ([3]; substrates L-Lys and Caprylic acid)?
Its value is “+”.

And the “signal … to N-acylamino acid” value ([3]; substrates L-Lys and Lauric acid)?
Its value is “+”.

What about the “signal … to N-acylamino acid” value ([3]; substrates L-Lys and Linoleic acid) of the same molecule?
The value was “−”.

What about the “signal … to N-acylamino acid” value ([3]; substrates L-Lys and Palmitic acid) of the same molecule?
Its value is “+”.

And the “signal … to N-acylamino acid” value ([3]; substrates L-Lys and myristic acid)?
The value was “+”.
